Experimental data reported in patent publication US20170275639A1.

Molecular target: WNV (strain New York 1999), infectious virus (West Nile virus, strain New York 1999) (UniProt Q9Q6P4)
Test: cell-based or functional assay

Substance: Tetra pHu-E16 (tetravalent molecule assembled from pHu-E16scFv-CH^1-3 and pHu-E16scFv-CL) (antibody)
- EC50, focus reduction neutralization assay (Vero cells): 3 ng/mL
